# What was measured:
# [1] = target: recombinant ED-B domain of fibronectin, conjugated to Sepharose (UniProt P02751); experiment: immunoreactivity of the labelled product (percent bound to ED-B Sepharose column, assay as in P-0168)
# [2] = target: recombinant ED-B domain of fibronectin, conjugated to Sepharose (UniProt P02751); experiment: immunoreactivity of the labelled product, Iodogen preparation (percent bound to ED-B Sepharose column, assay as in P-0168)
# [3] = target: recombinant ED-B domain of fibronectin, conjugated to Sepharose (UniProt P02751); experiment: immunoreactivity of the labelled product, chloramine-T preparation (percent bound to ED-B Sepharose column, assay as in P-0168)
# [4] = target: recombinant ED-B domain of fibronectin, conjugated to Sepharose (UniProt P02751); experiment: percent of 125I-labelled antibody bound to ED-B Sepharose column, before injection
# [5] = target: recombinant ED-B domain of fibronectin, conjugated to Sepharose (UniProt P02751); experiment: ED-B Sepharose column on plasma 3 h after i.v. injection of 125I-antibody, normalised to value before injection
# [6] = target: recombinant ED-B domain of fibronectin, conjugated to Sepharose (UniProt P02751); experiment: ED-B Sepharose column on plasma 6 h after i.v. injection of 125I-antibody, normalised to value before injection
# [7] = target: recombinant ED-B domain of fibronectin, conjugated to Sepharose (UniProt P02751); experiment: ED-B Sepharose column on plasma 24 h after i.v. injection of 125I-antibody, normalised to value before injection
# [8] = target: recombinant ED-B domain of fibronectin, conjugated to Sepharose (UniProt P02751); experiment: ED-B Sepharose column on plasma 48 h after i.v. injection of 125I-antibody, normalised to value before injection
# [9] = target: recombinant ED-B domain of fibronectin, conjugated to Sepharose (UniProt P02751); experiment: ED-B Sepharose column on plasma 72 h after i.v. injection of 125I-antibody, normalised to value before injection
# [10] = target: recombinant ED-B domain of fibronectin, conjugated to Sepharose (UniProt P02751); experiment: ED-B Sepharose column on plasma 144 h after i.v. injection of 125I-antibody, normalised to value before injection
# Chain of recombinant ED-B domain of fibronectin, conjugated to Sepharose (P02751 1266-1356 limits assumed): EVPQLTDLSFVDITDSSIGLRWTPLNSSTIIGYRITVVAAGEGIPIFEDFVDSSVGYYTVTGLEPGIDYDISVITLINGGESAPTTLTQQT
# Chain of radioiodinated (125I) scFv(L19)2 (VH): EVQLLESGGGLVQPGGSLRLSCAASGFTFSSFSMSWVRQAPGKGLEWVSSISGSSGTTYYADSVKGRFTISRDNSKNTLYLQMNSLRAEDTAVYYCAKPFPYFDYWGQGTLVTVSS
# Chain of radioiodinated (125I) scFv(L19)2 (VL): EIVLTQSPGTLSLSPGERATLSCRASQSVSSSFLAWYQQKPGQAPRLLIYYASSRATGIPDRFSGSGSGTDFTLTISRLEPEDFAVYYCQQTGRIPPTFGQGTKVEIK
# Chain of radioiodinated (125I) L19-IgG1 (VH): as the sequence (VH) above
# Chain of radioiodinated (125I) L19-IgG1 (VL): as the sequence (VL) above
# Chain of radioiodinated (125I) L19-SIP (VH): as the sequence (VH) above
# Chain of radioiodinated (125I) L19-SIP (VL): as the sequence (VL) above
# Chain of I-131-L19-SIP (VH): as the sequence (VH) above
# Chain of I-131-L19-SIP (VL): as the sequence (VL) above
# Chain of In-111-MX-DTPA-Maleimide-S(Cys)-L19-SIP-R (R=reduced) (VH): as the sequence (VH) above
# Chain of In-111-MX-DTPA-Maleimide-S(Cys)-L19-SIP-R (R=reduced) (VL): as the sequence (VL) above
# Chain of I-124-L19-SIP (VH): as the sequence (VH) above
# Chain of I-124-L19-SIP (VL): as the sequence (VL) above
# Chain of Re-188-L19-SIP (VH): as the sequence (VH) above
# Chain of Re-188-L19-SIP (VL): as the sequence (VL) above
# Chain of Tc-99m-L19-SIP (VH): as the sequence (VH) above
# Chain of Tc-99m-L19-SIP (VL): as the sequence (VL) above
# Chain of In-111-MX-DTPA-ε-HN(Lys)-L19-SIP (VH): as the sequence (VH) above
# Chain of In-111-MX-DTPA-ε-HN(Lys)-L19-SIP (VL): as the sequence (VL) above
# Chain of Tc-99m-MAG2-ε-HN(Lys)-L19-SIP (VH): as the sequence (VH) above
# Chain of Tc-99m-MAG2-ε-HN(Lys)-L19-SIP (VL): as the sequence (VL) above
# Chain of Y-88-MX-DTPA-ε-HN(Lys)-L19-SIP (VH): as the sequence (VH) above
# Chain of Y-88-MX-DTPA-ε-HN(Lys)-L19-SIP (VL): as the sequence (VL) above
# Chain of I-123-L19-SIP (VH): as the sequence (VH) above
# Chain of I-123-L19-SIP (VL): as the sequence (VL) above
# Chain of In-111-DOTA-C-Benzyl-p-NCS-ε-HN(Lys)-L19-SIP (VH): as the sequence (VH) above
# Chain of In-111-DOTA-C-Benzyl-p-NCS-ε-HN(Lys)-L19-SIP (VL): as the sequence (VL) above
# Chain of (3-(4-hydroxy-3-[131I]iodo-phenyl)-propionate)-L19-SIP (VH): as the sequence (VH) above
# Chain of (3-(4-hydroxy-3-[131I]iodo-phenyl)-propionate)-L19-SIP (VL): as the sequence (VL) above
# Chain of Lu-177-DOTA-C-Benzyl-p-NCS-ε-HN(Lys)-L19-SIP (VH): as the sequence (VH) above
# Chain of Lu-177-DOTA-C-Benzyl-p-NCS-ε-HN(Lys)-L19-SIP (VL): as the sequence (VL) above
substance,measurement,setting,value
(3-(4-hydroxy-3-[131I]iodo-phenyl)-propionate)-L19-SIP (from UniProt P01854 319-426) (antibody),Immunoreactivity,[1],69%
I-123-L19-SIP (from UniProt P01854 319-426) (antibody),Immunoreactivity,[1],84%
I-124-L19-SIP (from UniProt P01854 319-426) (antibody),Immunoreactivity,[1],86%
I-131-L19-SIP (from UniProt P01854 319-426) (antibody),Immunoreactivity,[2],78%
same,Immunoreactivity,[3],76%
In-111-DOTA-C-Benzyl-p-NCS-ε-HN(Lys)-L19-SIP (from UniProt P01854 319-426) (antibody),Immunoreactivity,[1],75.1%
In-111-MX-DTPA-Maleimide-S(Cys)-L19-SIP-R (R=reduced) (from UniProt P01854 319-426) (antibody),Immunoreactivity,[1],88.5%
In-111-MX-DTPA-ε-HN(Lys)-L19-SIP (from UniProt P01854 319-426) (antibody),Immunoreactivity,[1],77.5%
Lu-177-DOTA-C-Benzyl-p-NCS-ε-HN(Lys)-L19-SIP (from UniProt P01854 319-426) (antibody),Immunoreactivity,[1],73.4%
Re-188-L19-SIP (from UniProt P01854 319-426) (antibody),Immunoreactivity,[1],91.7%
Tc-99m-L19-SIP (from UniProt P01854 319-426) (antibody),Immunoreactivity,[1],91.4%
Tc-99m-MAG2-ε-HN(Lys)-L19-SIP (from UniProt P01854 319-426) (antibody),Immunoreactivity,[1],81.1%
Y-88-MX-DTPA-ε-HN(Lys)-L19-SIP (from UniProt P01854 319-426) (antibody),Immunoreactivity,[1],70.5%
radioiodinated (125I) L19-IgG1 (from UniProt P01857 1-330) (antibody),Immunoreactivity,[4],> 90%
same,"Immunoreactivity (I), % of the value before i.v. injection",[5],100%
same,"Immunoreactivity (I), % of the value before i.v. injection",[6],100%
same,"Immunoreactivity (I), % of the value before i.v. injection",[7],95%
same,"Immunoreactivity (I), % of the value before i.v. injection",[8],100%
same,"Immunoreactivity (I), % of the value before i.v. injection",[9],100%
same,"Immunoreactivity (I), % of the value before i.v. injection",[10],95%
radioiodinated (125I) L19-SIP (from UniProt P01854 319-426) (antibody),Immunoreactivity,[4],> 90%
same,"Immunoreactivity (I), % of the value before i.v. injection",[5],100%
same,"Immunoreactivity (I), % of the value before i.v. injection",[6],100%
same,"Immunoreactivity (I), % of the value before i.v. injection",[7],100%
same,"Immunoreactivity (I), % of the value before i.v. injection",[8],95%
same,"Immunoreactivity (I), % of the value before i.v. injection",[9],100%
same,"Immunoreactivity (I), % of the value before i.v. injection",[10],95%
radioiodinated (125I) scFv(L19)2,Immunoreactivity,[4],> 90%
same,"Immunoreactivity (I), % of the value before i.v. injection",[5],36%
same,"Immunoreactivity (I), % of the value before i.v. injection",[6],32%
same,"Immunoreactivity (I), % of the value before i.v. injection",[7],27%
same,"Immunoreactivity (I), % of the value before i.v. injection",[8],14%
same,"Immunoreactivity (I), % of the value before i.v. injection",[9],9%
same,"Immunoreactivity (I), % of the value before i.v. injection",[10],4%

# — patent US20050074401A1
